One molecule from paper PMC4102840 (Journal of Biomedical Research, 2014) can be followed below.

The assay concerns the target T1, cyan fluorescent protein (CFP)-SR-A (class A scavenger receptor) (human, UniProt P21757 1-451).
T1 sequence (looked up): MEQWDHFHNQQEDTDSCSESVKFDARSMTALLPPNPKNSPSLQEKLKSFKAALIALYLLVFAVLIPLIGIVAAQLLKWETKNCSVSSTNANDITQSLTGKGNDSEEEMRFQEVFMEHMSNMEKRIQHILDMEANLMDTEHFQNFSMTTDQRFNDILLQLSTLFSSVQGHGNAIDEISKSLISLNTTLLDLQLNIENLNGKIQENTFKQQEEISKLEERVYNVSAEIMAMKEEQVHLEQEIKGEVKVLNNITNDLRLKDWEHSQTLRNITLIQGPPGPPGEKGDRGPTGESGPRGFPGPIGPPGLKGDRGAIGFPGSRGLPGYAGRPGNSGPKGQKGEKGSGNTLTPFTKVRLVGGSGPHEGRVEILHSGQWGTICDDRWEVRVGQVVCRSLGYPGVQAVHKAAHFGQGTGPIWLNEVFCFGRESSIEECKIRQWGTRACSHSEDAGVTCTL
Kind of assay: FRET or BRET.

B1: yellow fluorescent protein (YFP)-GRP78 (78 kDa glucose-regulated protein) (natural protein)
chain: not shown
Consider B1, for which the “FR (mean FRET ratio)” value turned out to be 2.17.
